Experimental data: patent publication US20170275344A1, “POLYPEPTIDES AND USES THEREOF AS A DRUG FOR TREATMENT OF AUTOIMMUNE DISORDERS” (Compugen Ltd., priority 2014, published 2017)

What was measured:
[1] = test system: total splenocytes and lymph node cells; test: Ex vivo recall responses in adoptive transfer R-EAE; format: cell-based, mouse
Experimental: On day 45 (unless otherwise indicated) following cell transfer, spleen and cervical lymph nodes or CNS from 3 representative mice of each group were collected, and the total cells were activated ex vivo at 0.5×10^6 cells per well with either OVA323-339, PLP139-151, PLP178-191, MBP84-104 (20 ug/ml), or anti-CD3 (1 ug/ml). Two sets of cultures were set up side-by-side. One set was pulsed with 1 uCi of tritiated thymidine at 24 hours and harvested at 72 hours to determine cell proliferation. In the second set of cultures, supernatants were collected at 72 hours and tested for peptide-specific cytokine production as determined by LiquiChip.

[2] = test system: SJL/J mice; test: PLP139-151/CFA R-EAE upon IL-10 or TGFb blockade, clinical score; format: in vivo, mouse
Experimental: SJL/J mice were purchased from Harlan and primed with PLP139-151/CFA per the standard protocol, as described in 21.1.2 Methods, above). At disease remission the mice were split into 6 different treatment groups (n=5) as follows:
Mice were treated with Control Ig (mouse IgG2a) or C1ORF32 ECD-Fc (SEQ ID NO:42) at 100 ug/dose, each via an i.p. injection. This was followed with a second i.p. injection on the same day of either anti-IL-10 (rat IgG1), rat IgG1 (control Ab), or anti-TGFβ (mouse IgG1) at 100 ug/dose, each. All treatments were given 3×/wk for 2 wks, beginning on day +20 (onset of disease remission) and until day +31 post disease induction. All mice were followed for disease scores until day 44 post disease induction. On day 44, mice were sacrificed and analyzed for total T cell and Treg cell numbers in spleen and CNS.
At onset of disease remission (day +20 post disease induction) mice were allocated into 6 treatment groups (described above) and treated with either C1ORF32 ECD-Fc (SEQ ID NO:42) or control Ig (mIgG2a), and followed on the same day by treatment with anti-IL-10, anti-TGF-β, or rat IgG1 isotype control. All treatments were given at 100 ug/dose in 100 μl of PBS; via i.p. injection, at 3×/week for 2 weeks from onset of remission.
Mice were followed for disease and scored on a 0-5 scale per standard lab protocol as follows: 0, no abnormality; 1, limp tail; 2, limp tail and hind limb weakness; 3, hind limb paralysis; 4, hind limb paralysis and forelimb weakness; and 5, moribund. Dead mice were scored with a score of 5 on the day of death only, and were not further scored on the next days.

[3] = test system: SJL/J mice; test: T cell and Treg counts in spleen and CNS, day 44 of EAE with IL-10 or TGFb blockade (FACS); format: in vivo, mouse
Excerpt: On day 44 post disease induction, the rest of the mice were sacrificed and spleens and CNS were taken for cell counts and cell population analysis as described below.
2. The spleens and CNS were collected.
4. Experimental stains (CD45, CD3, CD4, CD25, FoxP3, Nrp-1, and Helios)
9. Gating scheme for flow: Singlets (FSC-A vs. FSC-H)->Cells (SSC-A vs. FSC-A)->Live (VID stain negative cells)->CD45hi->CD3/CD4+->CD25/FoxP3+->Helios/Nrp-1

[4] = test system: male DBA-1 mice; test: Established collagen-induced arthritis (CIA), therapeutic regimen; format: in vivo, mouse
Experimental: Bovine type II collagen (CII) (RUNMC in house production, batch 03-04-08) at a concentration of 2 mg/ml in acetic acid 0.05M was emulsified in equal volumes of Freund's complete adjuvant (2 mg/ml of Mycobacterium tuberculosis strain H37Ra; Difco, Detroit, Mich.).
On day 0, 10-12 week old male DBA-1 mice (Janvier Elevage, France) (n=95) were immunized i.d. at the base of the tail with 100 μg of bovine CII. On day 21, mice received an intraperitoneal booster injection of 50 μg of CII dissolved in phosphate buffered saline (PBS), and the onset of arthritis occurred a few days after this booster.
Joint inflammation in each paw was scored visually, using a scale of 0-2 per paw with a maximal score of 8 per animal: 0=non inflamed, 1=mild inflammation, 1.5=marked inflammation, and 2=severe inflammation. Scoring was performed three times a week.
Treatment was started in established CIA early after onset of disease (i.e. therapeutic regimen), when the macroscopic scores per animal were between 0.25 and 1.25 (on a scale of 0-8). The i.p. injections were given three times per week for two weeks, after which the study was terminated and mice were terminally bled to collect serum. Thereafter, the knee and ankle joints were collected and stored in formalin. Histology was scored for inflammation and destruction on an arbitrary scale of 0-3, for five different parameters: • Joint inflammation • Cartilage proteoglycan (PG) depletion • Chondrocyte death • Cartilage erosion • Bone erosion
1. Negative control: PBS 2. Negative control mIgG2A (Bioxcell, BE0085): 10 mg/kg 3. C1ORF32 ECD-Fc (SEQ ID NO:42): 10 mg/kg 4. C1ORF32 ECD-Fc (SEQ ID NO:42): 5 mg/kg 5. Positive control: Enbrel (Wyeth, F01421) 5 mg/kg
Joints were fixed for at least 4 days in 4% formaldehyde, decalcified in 5% formic acid, and subsequently dehydrated and embedded in paraffin. Standard frontal sections of 7 μm were mounted on SuperFrost slides (Menzel-Glaser, Braunschweig, Germany). Haematoxylin and eosin (H&E) staining was performed to study joint inflammation. The severity of inflammation in the joints was scored on a scale of 0-3 (0=no cells, 1=mild cellularity, 2=moderate cellularity, and 3=maximal cellularity). To study proteoglycan (PG) depletion from the cartilage matrix, sections were stained with safranin O (SO) followed by counterstaining with fast green. Depletion of PG was determined using an arbitrary scale of 0-3, ranging from normal, fully stained cartilage to destained cartilage, fully depleted of PGs. Chondrocyte death was scored on a scale of 0-3 ranging from no loss of chondrocyte nuclei to complete empty cartilage surface. The degree of cartilage surface erosion was scored on a scale of 0-3, ranging from no damage to complete loss of articular cartilage. Bone destruction was graded separately on a scale of 0-3, ranging from no damage to the complete loss of bone structure. Histopathological changes in the joint were scored on three semiserial sections of the joint spaced 70 μm apart. Scoring was performed in a blindfolded manner.
Statistical analysis: Disease course data was analyzed using one-way ANOVA with repeated measures, with a Bonferroni's post-test of selected pairs to determine statistical differences between C1ORF32 ECD-Fc (SEQ ID NO:42) and Enbrel treated mice, each as compared to Control Ig (IgG2a) treated group.

B1: C1ORF32 ECD-Fc (SEQ ID NO:42): fusion protein of human C1ORF32 ECD fused to mouse immunoglobulin Fc (human-mouse fusion protein) (protein)
chain: LQVTVPDKKKVAMLFQPTVLRCHFSTSSHQPAVVQWKFKSYCQDRMGESLGMSSTRAQSLSKRNLEWDPYLDCLDSRRTVRVVASKQGSTVTLGDFYRGREITIVHDADLQIGKLMWGDSGLYYCIITTPDDLEGKNEDSVELLVLGRTGLLADLLPSFAVEIMGSENLYFQGSGEPRGPTIKPCPPCKCPAPNLLGGPSVFIFPPKIKDVLMISLSPIVTCVVVDVSEDDPDVQISWFVNNVEVHTAQTQTHREDYNSTLRVVSALPIQHQDWMSGKEFKCKVNNKDLPAPIERTISKPKGSVRAPQVYVLPPPEEEMTKKQVTLTCMVTDFMPEDIYVEWTNNGKTELNYKNTEPVLDSDGSYFMYSKLRVEKKNWVERNSYSCSVVHEGLHNHHTTKSFSRTPGK
modifications: Fusion protein human C1ORF32-ECD fused to mouse IgG2a Fc
With B1 the “recall responses of CNS cells to PLP139-151 and anti CD3” value ([1]; day 10, treatment from time of cell transfer) was “abolished”, the GM-CSF secretion ([1]; day 45, activation with PLP139-151 and PLP178-191) was “inhibition of GM-CSF secretion” and the “IFN-gamma and IL-17 secretion” value ([1]; day 45, activation with anti-CD3, PLP139-151, and PLP178-191) was “inhibition”. The “splenocyte secretion of IL-4 and IL-10” value ([1]; day 45, in response to PLP139-151) was “increased splenocyte secretion”, the “recall responses: cellular proliferation of splenocytes and lymph node cells” value ([1]; day 45, treatment from onset of remission) was “decreased level of cellular proliferation” and the disease progression ([2]; 100 ug/dose i.p. 3x/wk 2 wks from day +20, followed by rIgG1, vs control Abs only) was “pronounced inhibition of disease progression”. For the same molecule, the “beneficial effect on disease with concomitant anti-IL-10” value ([2]; followed by anti-IL-10 100 ug/dose) was “abrogated the beneficial effect”, the “beneficial effect on disease with concomitant anti-TGFβ” value ([2]; followed by anti-TGFβ 100 ug/dose) was “abrogated the beneficial effect” and the mice found dead ([2]; group C1ORF32 ECD-Fc and anti-TGFβ, day 28, n=5) was 1. For the same molecule, the mice found dead ([2]; group C1ORF32 ECD-Fc in combination with anti-IL-10, day 28, n=5) was 2, the “NRP+/Helios+ Treg subpopulation in the spleen” value ([3]; administered concomitantly with anti-TGFβ) was “increase” and the “Nrp+/HeliosLo Treg subpopulation in the spleen” value ([3]; alone or concomitantly with anti-TGFβ) was “trend of increase”. The “T cell counts in the spleen (mainly CD4+)” value ([3]; day 44) was “increase”, the “effects on CNS and spleen cell counts following concomitant neutralization of IL-10 or TGF-β” value ([3]; day 44) was “not observed” and the “leukocytes and T cell counts in the CNS (CD45+, CD4+, and CD25+/FoxP3+)” value ([3]; day 44) was “pronounced decrease”. The “Nrp-/HeliosLo Treg subpopulation in the spleen” value ([3]; treatment alone) was “upregulation”, the “clinical (macroscopic) scores of arthritis” value ([4]; 5 mg/kg i.p. 3x/wk for 2 wks) was “did not demonstrate any effect” and the “clinical (macroscopic) scores of arthritis” value ([4]; 10 mg/kg i.p. 3x/wk for 2 wks, p<0.001 vs mIgG2a) was “significantly reduced the clinical scores of arthritis”. The “histological arthritis pathology of ankle joints” value ([4]; 10 mg/kg, after two weeks of therapy, did not reach statistical significance) was “trend of reduced arthritis pathology” and the “results over three CIA studies” value ([4]; three studies) was “excellent results in two studies and weak results in one study”.
